Results: patent publication US12247238B2, “Mogroside biocatalysis methods and products” (The Coca-Cola Company, priority 2019, dated 2025)
Residue numbers refer to the chain shown, from its start. Names may count otherwise. “Also recorded” adds a separate entry of the source.

B1: D258E: A. oryzae β-galactosidase variant, D258E (protein, UniProt Q2UCU3 19-1005, looked up, variant D258E)
Beta-galactosidase A: ASIKHRLNGFTILEHPDPAKRDLLQDIVTWDDKSLFINGERIMLFSGEVHPFRLPVPSLWLDIFHKIRALGFNCVSFYIDWALLEGKPGDYRAEGIFALEPFFDAAKEAGIYLIARPGSYINAEVSGGGFPGWLQRVNGTLRSSDEPFLKATDNYIANAAAAVAKAQITNGGPVILYQPENEYSGGCCGVKYPDADYMQYVMDQARKADIVVPFISNDASPSGHNAPGSGTGAVDIYGHESYPLGFDCANPSVWPEGKLPDNFRTLHLEQSPSTPYSLLEFQAGAFDPWGGPGFEKCYALVNHEFSRVFYRNDLSFGVSTFNLYMTFGGTNWGNLGHPGGYTSYDYGSPITETRNVTREKYSDIKLLANFVKASPSYLTATPRNLTTGVYTDTSDLAVTPLIGDSPGSFFVVRHTDYSSQESTSYKLKLPTSAGNLTIPQLEGTLSLNGRDSKIHVVDYNVSGTNIIYSTAEVFTWKKFDGNKVLVLYGGPKEHHELAIASKSNVTIIEGSDSGIVSTRKGSSVIIGWDVSSTRRIVQVGDLRVFLLDRNSAYNYWVPELPTEGTSPGFSTSKTTASSIIVKAGYLLRGAHLDGADLHLTADFNATTPIEVIGAPTGAKNLFVNGEKASHTVDKNGIWSSEVKYAAPEIKLPGLKDLDWKYLDTLPEIKSSYDDSAWVSADLPKTKNTHRPLDTPTSLYSSDYGFHTGYLIYRGHFVANGKESEFFIRTQGGSAFGSSVWLNETYLGSWTGADYAMDGNSTYKLSQLESGKNYVITVVIDNLGLDENWTVGEETMKNPRGILSYKLSGQDASAITWKLTGNLGGEDYQDKVRGPLNEGGLYAERQGFHQPQPPSESWESGSPLEGLSKPGIGFYTAQFDLDLPKGWDVPLYFNFGNNTQAARAQLYVNGYQYGKFTGNVGPQTSFPVPEGILNYRGTNYVALSLWALESDGAKLGSFELSYTTPVLTGYGNVESPEQPKYEQRKGAY
B2: E142A: A. oryzae β-galactosidase variant, E142A (protein, UniProt Q2UCU3 19-1005, looked up, variant E142A)
Beta-galactosidase A: B1 Beta-galactosidase A with E124A, E240D

Key:
Format in all cases: biochemical
[1] = β-galactosidase ONPG activity assay; conditions: oNPG substrate, over 30 minutes
Method: Standard β-galactosidase assays were performed at room temperature using o-nitrophenyl-β-D-galactopyranoside (ONPG, Sigma) as a substrate in […] with detection of o-nitrophenol release at 420 nm (UV-Spectra Max Spectrophotometer, Molecular Devices, USA). A typical reaction contained 50 mM sodium citrate buffer pH 5.6, 10 mM magnesium chloride and 100 mM potassium chloride with 2 mM ONPG and the desired amount of enzyme (usually […]). Partially purified AoBG (Sigma G5160, USA) was used as a positive control at a final concentration of 1 U mL−1. Vmax was calculated using the SpectraMax Plus software (Molecular Devices, USA) and when required kinetics were determined by varying the concentration of substrate and kinetic determinants calculated using Hyper™ (J. S. Easterby, Liverpool University).
(§1) Cells expressing enzyme variants grown in buffered minimal medium were induced for 72 hr with 1% methanol (refreshed every 24 hr), the culture supernatant harvested and assayed for standard ONPG activity over 30 minutes and mogroside V activity at pH 5.6, 37° C. for 72 hrs. The resultant activity data (Table 2) identified E200 and D258 as the likely catalytic pair for acid/base and nucleophilic attack of mogroside V by the A. oryzae β-glucosidase enzyme.

[2] = Standard mogroside biocatalytic assay, mogroside V substrate; conditions: for Initial Rate / Reaction Progress / Sia 1: Mogroside hydrolysis; for Initial Rate / Reaction Progress / Sia 1 / Sia:MogIII / Sia:MogIV: 37 C., pH 5.6; for Reaction Progress / Sia 1 / Sia:MogIII / Sia:MogIV: 72 h; for Sia:MogIII / Sia:MogIV: product ratio
Method: (§2) Standard mogroside biocatalytic assays were performed at 37° C. in 500 μL, volume 50 mM sodium citrate buffer pH 5.6, 10 mM magnesium chloride, 10 mM substrate (typically mogroside V) and 50 μg mL−1 enzyme, and incubated for 24-96 hours. Mogroside glucosidation activity was detected by direct HPLC detection and quantification of mogroside V substrate and mogroside products from filtered reaction supernatant, and quantified by comparison with standard curves based on peak.
(§3) Mogroside compounds HPLC separation and quantification was conducted using a Synergi Hydro-RP column (250 mm×4.6 mm or 150 mm×4.6 mm) with an initial flow rate of 1 mL min−1 and a water: acetonitrile gradient as per below, similar to that described by Zhou et al. (WO 2014/150127). Compounds were detected at 210 nm using diode array detector (Agilent Technologies, USA), and calibration curves established using standard curves from 0.1 to 10 mM.
as §1

[3] = Example 8 standard mogroside biocatalytic assay, Mog V as substrate; conditions: 37° C., pH 5.6; for % Siamenoside I: 72 hr
Method: as §2, with “μL” for “μL,”, “V or Siamenoside I)” for “V)”, “peak area (see Analytical Methods).” for “peak.”
as §3, with “Analytical Method: Mogroside” for “Mogroside”, “mM. 150 mm column retention times in minutes: mog V 9.5, sia 1 10.6, mog IVa 10.5, mog IV 11.3, mog III 12.6, mogl I 13.2. 250 mm column retention times: mog V 12.3, sia 1 13.2, mog IVa 13.5, mog IV 14.1, mog III 15.3, mog II 16.2.” for “mM.”

[4] = Example 8 standard mogroside biocatalytic assay, Sia I as substrate; conditions: 37° C., pH 5.6
Method: as §2, with “μL” for “μL,”, “V or Siamenoside I)” for “V)”, “peak area (see Analytical Methods).” for “peak.”
as §3, with “Analytical Method: Mogroside” for “Mogroside”, “mM. 150 mm column retention times in minutes: mog V 9.5, sia 1 10.6, mog IVa 10.5, mog IV 11.3, mog III 12.6, mogl I 13.2. 250 mm column retention times: mog V 12.3, sia 1 13.2, mog IVa 13.5, mog IV 14.1, mog III 15.3, mog II 16.2.” for “mM.”

[5] = Example 8 standard mogroside biocatalytic assay, Mog V as substrate; conditions: 37° C., pH 5.6
[6] = Mogroside biocatalytic assay, Siamenoside I substrate; conditions: SiaI Substrate (10 mM) (24 h), pH 5.6, 37° C.
Method: as §2, §3

[7] = Mogroside biocatalytic assay, equimolar MogV:SiaI substrate
Method: as §2, §3

[8] = Mog V Substrate (10 mM) (24 h), pH 5.6, 37° C.
[9] = Equimolar MogV:SiaI Substrate (5 mM each) (48 h), pH 5.6, 37° C.

oNPG [1]	Molecule	Initial Rate [2]	Reaction Progress [2]	Sia 1 [2]	Sia:MogIII [2]	Sia:MogIV [2]	Reaction progress (% conversion) [3]	% Siamenoside I [3]	Km [4]	kcat [4]	Km [5]	kcat [5]	also measured
41.4 ± 0.9 mAu/min/mg	B1	2.70 µmol/min/mg	99%	55%	2.8	2.1	99%	55%	3.31 ± 0.8 mM	36.8 ± 3.1 s⁻¹	2.5 ± 0.2 mM	966 ± 26 s⁻¹	rate of mogroside hydrolysis (in words) [2]: increased initial rate of mogroside hydrolysis; also recorded: increased rate of mogroside V hydrolysis
33.6 ± 0.4 mAu/min/mg	B2	2.16 µmol/min/mg	89%	73%	16.2	13	91%	78 ± 2.8%	4.42 ± 0.9 mM	3.9 ± 0.7 s⁻¹	2 ± 0.4 mM	741 ± 38 s⁻¹	Siamenoside I production/yield from mogroside V (in words) [2]: increased ratio of Siamenoside I production; also recorded: increased Siamenoside I yield; mog III [2, 8]: 1 molar percentage; mog V [2, 8]: 67 molar percentage; sia I [2, 8]: 32 molar percentage; mog II [6]: 3 molar percentage; mog III [6]: 12 molar percentage; sia I [6]: 84 molar percentage; mog II [7, 9]: 0.1 molar percentage; mog III [7, 9]: 3 molar percentage; mog IV [7, 9]: 0.2 molar percentage; mog V [7, 9]: 10 molar percentage; sia I [7, 9]: 82 molar percentage; effectiveness of Siamenoside I as a substrate in the presence of mogroside V (in words) ([7]; comparison of wildtype and variant): reducing the effectiveness of Siamenoside I as a substrate
